Each binder was assayed against T1, HLA-A*02:01 (human) (assay: UV-ligand exchange, anti-b2m ELISA; peptide exchange yield grade).
T1 construct: Peptide-receptive MHC class I monomer after UV cleavage of a UV-sensitive ligand
Description: (§1) Candidate peptides for T cell based therapies according to the present invention were further tested for their MHC binding capacity (affinity). The individual peptide-MHC complexes were produced by UV-ligand exchange, where a UV-sensitive peptide is cleaved upon UV-irradiation and exchanged with the peptide of interest as analyzed. Only peptide candidates that can effectively bind and stabilize the peptide-receptive MHC molecules prevent dissociation of the MHC complexes. To determine the yield of the exchange reaction, an ELISA was performed based on the detection of the light chain (β2m) of stabilized MHC complexes. The assay was performed as generally described in Rodenko et al. (Rodenko et al., 2006).
(§2) 96 well MAXISorp plates (NUNC) were coated over night with 2 μg/ml streptavidin in PBS at room temperature, washed 4× and blocked for 1h at 37° C. in 2% BSA containing blocking buffer. Refolded HLA-A*02:01/MLA-001 monomers served as standards, covering the range of 15-500 ng/ml. Peptide-MHC monomers of the UV-exchange reaction were diluted 100-fold in blocking buffer. Samples were incubated for 1 h at 37° C., washed four times, incubated with 2 μg/ml HRP conjugated anti-β2m for 1h at 37° C., washed again and detected with TMB solution that is stopped with […]. Absorption was measured at 450 nm. Candidate peptides that show a high exchange yield (preferably higher than 50%, most preferred higher than 75%) are generally preferred for a generation and production of antibodies or fragments thereof, and/or T cell receptors or fragments thereof, as they show sufficient avidity to the MHC molecules and prevent dissociation of the MHC complexes.

| Binder | binding result |
| --- | --- |
| SLIDITHGF | binds |

Each binder was assayed against T2, HLA-A*03:01 (human) in the same assay as above.
T2 construct: Peptide-receptive MHC class I monomer after UV cleavage of a UV-sensitive ligand
Description: as §1, §2

| Binder | peptide exchange yield |
| --- | --- |
| IVRDLSCRK | 50 to 75% |
| RLPAADFTRY | 20 to 50% |
| HLYYDVTEK | 50 to 75% |
| NLYDWSASY | 20 to 50% |
| RLWDFTMNAK | 50 to 75% |
| KAYDQTHLY | ≥ 75% |

These binders were tested against T3, HLA-A*24:02 (human) in the same assay as above.
T3 construct: Peptide-receptive MHC class I monomer after UV cleavage of a UV-sensitive ligand
Description: as §1, §2

| Binder | peptide exchange yield |
| --- | --- |
| HLFYDVTVF | 20 to 50% |
| EYQDFSTLF | ≥ 75% |
| VYLDASKVPGF | ≥ 75% |
| YFVDVTTRI | 50 to 75% |
| VYIDDSVEL | ≥ 75% |
| IYLDRTLLTTI | ≥ 75% |
| RYVNDYTNSF | ≥ 75% |
| KSYHDQTISF | ≥ 75% |
| RQDESYLNF | 20 to 50% |
| QYQDTTVSF | 50 to 75% |
| VYVDTTELAL | ≥ 75% |
| IYPDGTLLI | ≥ 75% |
| FYDLSIQSF | ≥ 75% |
| TYLPTDASLSF | ≥ 75% |
| YHDQTISF | 10 to 20% |
| FHYDDTAGYF | 10 to 20% |
| QAIDLSLNF | 20 to 50% |
| IYQFARLDY | 20 to 50% |
| IFVPTDRSL | 20 to 50% |
| AFDKTIVKL | 20 to 50% |
| VFDETKNLL | 20 to 50% |
| VYTDISHHF | ≥ 75% |

Each binder was assayed against T4, HLA-B*07:02 (human) in the same assay as above.
T4 construct: Peptide-receptive MHC class I monomer after UV cleavage of a UV-sensitive ligand
Description: as §1, §2

| Binder | peptide exchange yield |
| --- | --- |
| NPADISVAL | ≥ 75% |
| LPFFTDKTLSF | ≥ 75% |
| HPDLTSMTF | ≥ 75% |
| HPFGYDLTL | ≥ 75% |
| APFKDVTEY | 50 to 75% |
| SPKIFDSSW | 50 to 75% |
| FPYYLKIDY | 50 to 75% |
| GEPTSDITLL | 50 to 75% |
| VPRNQDESV | ≥ 75% |

These binders were tested against T5, HLA-B*08:01 (human) in the same assay as above.
T5 construct: Peptide-receptive MHC class I monomer after UV cleavage of a UV-sensitive ligand
Description: as §1, §2

| Binder | binding result |
| --- | --- |
| DILDRTGHQL | binds |
| DVSDKITFM | binds |

Each binder was assayed against T6, HLA-B*44:05 (human) in the same assay as above.
T6 construct: Peptide-receptive MHC class I monomer after UV cleavage of a UV-sensitive ligand
Description: as §1, §2

| Binder | peptide exchange yield |
| --- | --- |
| TEGDFTKEASTY | 50 to 75% |
| DETIWYVRF | ≥ 75% |
| AESLAVHDI | 50 to 75% |
| QEVDISLHY | ≥ 75% |
| DETAAYKIM | 50 to 75% |
| AQDTTYLWW | ≥ 75% |
| DETHTLQF | ≥ 75% |
| GEYRCQTDL | ≥ 75% |
| AERDLDVTI | ≥ 75% |
| KEVDDTLLVNEL | ≥ 75% |
| LENMYDLTF | ≥ 75% |
| DEAVRDITW | ≥ 75% |
| TDFTKIASF | ≥ 75% |
| AEFFDYTVRTL | ≥ 75% |
| KPREEQYDSTY | ≥ 75% |
| DESKYTWSW | ≥ 75% |
| RDATASLW | ≥ 75% |
| KENQDHSYSL | ≥ 75% |

Reference: patent US20220098269A1 (IMMATICS BIOTECHNOLOGIES, published 2022)
